Test results reported in the RNAGym collection of RNA variant scans (doi:10.7554/elife.90254).

B1: OR4K15 (parent)
chain: GUUAACGGUCAUAGGCCAUGGAAACUAGGAGCACCAUUUCGCUGCCAGUGAAGAAAUGAACAAAGAAAAUCUGGGCCAGGCAGGCAUCAAAAGAAAUAGUCUUGCGCUCAACCAGAAAGUCUGUAAUCAUUUUAAGGGUA

Variants of: B1
Assay: self-cleavage, relative activity (ratio to wild type); higher = more cleavage; in vitro, sequencing; the parent is a self-cleaving ribozyme
Work on GUUAACGGUCAUAGGCCAUGGAAACUAGGAGCACCAUUUCGCUGCCAGUGAAGAAAUGAACAAAGAAAAUCUGGGCCAGGCUGGCAUCAAAAGAAAUGGUCUUGCGCUCAACCAGAAAGUCUGUAAUCAUUUUAAGGGUA [A82U A98G] yielded a self-cleavage of 0.06. Variant GUUAACGGUCAUAGGCCAUGGAAACUAGGAGCACCAUUUCGCUGCCAGUGAAGAAAUGAACAAAGAAAAUCUGGGCCAGGCUGGCAUCAAAAGAAAUAGUCUUGCGCUCAACCAGAAAGUCUGUACUCAUUUUAAGGGUA [A82U A126C] has a self-cleavage of 0.05. With GUUAACGGUCAUAGGCCAUGGAAACUAGGAGCACCAUUUCGCUGCCAGUGAAGAAAUGAACAAAGAAAAUCUGGGCCAGGCUGGCAUCAAAAGACAUAGUCUUGCGCUCAACCAGAAAGUCUGUAAUCAUUUUAAGGGUA [A82U A95C] the self-cleavage was 0.12. In the case of GUUAACGGUCAUAGGCCAUGGAAACUAGGAGCACCAUUUCGCUGCCAGUGAAGAAAUGAACAAAGAAAAUCUGGGCCAGGCUGGCAUCAAAAGAGAUAGUCUUGCGCUCAACCAGAAAGUCUGUAAUCAUUUUAAGGGUA [A82U A95G], the self-cleavage is reported as 0.51. With GUUAACGGUCAUAGGCCAUGGAAACUAGGAGCACCAUUUCGCUGCCAGUGAAGAAAUGAACAAAGAAAAUCUGGGCCAGGCUGGCAUCAAAAGAAAUAGUCUUGCGCUCAACCAGAAAGUCUGUAAUCAUUUCAAGGGUA [A82U U133C] the self-cleavage was 0.07. Variant GUUAACGGUCAUAGGCCAUGGAAACUAGGAGCACCAUUUCGCUGCCAGUGAAGAAAUGAACAAAGAAAAUCUGGGCCAGGCAAGCAUCAAAAGAAAUAGUCUUGCGCUUAACCAGAAAGUCUGUAAUCAUUUUAAGGGUA [G83A C109U] has a self-cleavage of 0.71. In the case of GUUAACGGUCAUAGGCCAUGGAAACUAGGAGCACCAUUUCGCUGCCAGUGAAGAAAUGAACAAAGAAAAUCUGGGCCAGGCUGGCAUCAAAAGAAAUAGUCUUGCGCUCAACCAGACAGUCUGUAAUCAUUUUAAGGGUA [A82U A117C], the self-cleavage is reported as 0.04. With GUUAACGGUCAUAGGCCAUGGAAACUAGGAGCACCAUUUCGCUGCCAGUGAAGAAAUGAACAAAGAAAAUCUGGGCCAGGCUGGCAUCAAAAGAAAUAGUCUUGCGCUCAACCAGAUAGUCUGUAAUCAUUUUAAGGGUA [A82U A117U] the self-cleavage was 0.23. GUUAACGGUCAUAGGCCAUGGAAACUAGGAGCACCAUUUCGCUGCCAGUGAAGAAAUGAACAAAGAAAAUCUGGGCCAGGCUGGCAUCAAAAGAAAUAGUCUUGCGCUCAACCAGAGAGUCUGUAAUCAUUUUAAGGGUA [A82U A117G] showed a self-cleavage of 0.28. For GUUAACGGUCAUAGGCCAUGGAAACUAGGAGCACCAUUUCGCUGCCAGUGAAGAAAUGAACAAAGAAAAUCUGGGCCAGGCUGGCAUCAAAAGAAAUAGUCUUGCGCUCAACCAGAAAGUCUGUAAUCAUUUUAAGGGUG [A82U A140G], the self-cleavage was 0.23. With GUUAACGGUCAUAGGCCAUGGAAACUAGGAGCACCAUUUCGCUGCCAGUGAAGAAAUGAACAAAGAAAAUCUGGGCCAGGCAAGCAUCAAAAGAAAUAGUCUUGCGCUCAACCAGAAGGUCUGUAAUCAUUUUAAGGGUA [G83A A118G] the self-cleavage was 1.41. In the case of GUUAACGGUCAUAGGCCAUGGAAACUAGGAGCACCAUUUCGCUGCCAGUGAAGAAAUGAACAAAGAAAAUCUGGGCCAGGCUGGCAUCAAAAGAAAUAGUCUUGCGCUCAACCAGGAAGUCUGUAAUCAUUUUAAGGGUA [A82U A116G], the self-cleavage is reported as 0.09. GUUAACGGUCAUAGGCCAUGGAAACUAGGAGCACCAUUUCGCUGCCAGUGAAGAAAUGAACAAAGAAAAUCUGGGCCAGGCUGGCACCAAAAGAAAUAGUCUUGCGCUCAACCAGAAAGUCUGUAAUCAUUUUAAGGGUA [A82U U87C] showed a self-cleavage of 0.22. With GUUAACGGUCAUAGGCCAUGGAAACUAGGAGCACCAUUUCGCUGCCAGUGAAGAAAUGAACAAAGAAAAUCUGGGCCAGGCAAGCAUCAAAAUAAAUAGUCUUGCGCUCAACCAGAAAGUCUGUAAUCAUUUUAAGGGUA [G83A G93U] the self-cleavage was 2.03. For GUUAACGGUCAUAGGCCAUGGAAACUAGGAGCACCAUUUCGCUGCCAGUGAAGAAAUGAACAAAGAAAAUCUGGGCCAGGCUGGCAUCAAAAGAAAUAGUCUUGCGCUCAACCAGAAAGUCUGUAAUCAUUUUAGGGGUA [A82U A135G], the self-cleavage was 0.22. Work on GUUAACGGUCAUAGGCCAUGGAAACUAGGAGCACCAUUUCGCUGCCAGUGAAGAAAUGAACAAAGAAAAUCUGGGCCAGGCUGGCAUCAAAAGAAAUAGUCUUGCGCUCAACCAGAAAGUCUGUAAUCAUUUUAUGGGUA [A82U A135U] yielded a self-cleavage of 0.12. GUUAACGGUCAUAGGCCAUGGAAACUAGGAGCACCAUUUCGCUGCCAGUGAAGAAAUGAACAAAGAAAAUCUGGGCCAGGCUGGCAUCAAAAGAAAUAGUCUUGCGCUCAACCAGAAAGUCUAUAAUCAUUUUAAGGGUA [A82U G123A] showed a self-cleavage of 0.19. Work on GUUAACGGUCAUAGGCCAUGGAAACUAGGAGCACCAUUUCGCUGCCAGUGAAGAAAUGAACAAAGAAAAUCUGGGCCAGGCAAGCAUCAAAAGAAAUAGUCUUGCGCUCAACCAGAAAGCCUGUAAUCAUUUUAAGGGUA [G83A U120C] yielded a self-cleavage of 1.74. Work on GUUAACGGUCAUAGGCCAUGGAAACUAGGAGCACCAUUUCGCUGCCAGUGAAGAAAUGAACAAAGAAAAUCUGGGCCAGGCUGGCAUCAAAAGAAAAAGUCUUGCGCUCAACCAGAAAGUCUGUAAUCAUUUUAAGGGUA [A82U U97A] yielded a self-cleavage of 0.34. GUUAACGGUCAUAGGCCAUGGAAACUAGGAGCACCAUUUCGCUGCCAGUGAAGAAAUGAACAAAGAAAAUCUGGGCCAGGCUGGCAUCAAAAGAAACAGUCUUGCGCUCAACCAGAAAGUCUGUAAUCAUUUUAAGGGUA [A82U U97C] showed a self-cleavage of 0.06. Work on GUUAACGGUCAUAGGCCAUGGAAACUAGGAGCACCAUUUCGCUGCCAGUGAAGAAAUGAACAAAGAAAAUCUGGGCCAGGCAAGCAUCAAAAGAAAUAGUCUUGCGCUCAACCAGAUAGUCUGUAAUCAUUUUAAGGGUA [G83A A117U] yielded a self-cleavage of 1.21. In the case of GUUAACGGUCAUAGGCCAUGGAAACUAGGAGCACCAUUUCGCUGCCAGUGAAGAAAUGAACAAAGAAAAUCUGGGCCAGGCUGGCAUCAAAAGAAAUAGUUUUGCGCUCAACCAGAAAGUCUGUAAUCAUUUUAAGGGUA [A82U C101U], the self-cleavage is reported as 0.04. GUUAACGGUCAUAGGCCAUGGAAACUAGGAGCACCAUUUCGCUGCCAGUGAAGAAAUGAACAAAGAAAAUCUGGGCCAGGCUGGCAUCAAAAGAAAUAGUCUUGCGCUCAACCAGAAAGUCUGUAAUCAUUUUAAGGAUA [A82U G138A] showed a self-cleavage of 0.17. GUUAACGGUCAUAGGCCAUGGAAACUAGGAGCACCAUUUCGCUGCCAGUGAAGAAAUGAACAAAGAAAAUCUGGGCCAGGCAAGCAUCAAAAGAAAUAGUCUUGCGCUCAACCAGAAAGUCCGUAAUCAUUUUAAGGGUA [G83A U122C] gave a self-cleavage of 1.87. For GUUAACGGUCAUAGGCCAUGGAAACUAGGAGCACCAUUUCGCUGCCAGUGAAGAAAUGAACAAAGAAAAUCUGGGCCAGGCAAGCAUCUAAAGAAAUAGUCUUGCGCUCAACCAGAAAGUCUGUAAUCAUUUUAAGGGUA [G83A A89U], the self-cleavage was 1.82. GUUAACGGUCAUAGGCCAUGGAAACUAGGAGCACCAUUUCGCUGCCAGUGAAGAAAUGAACAAAGAAAAUCUGGGCCAGGCUGGCAUCAAAAGAAAUAGUCUUGCGCCCAACCAGAAAGUCUGUAAUCAUUUUAAGGGUA [A82U U108C] showed a self-cleavage of 0.01. Work on GUUAACGGUCAUAGGCCAUGGAAACUAGGAGCACCAUUUCGCUGCCAGUGAAGAAAUGAACAAAGAAAAUCUGGGCCAGGCUGGCAUCAAAAGAAAUAGUCUUGCGCUCAACCAGAAAGUCUGUAAACAUUUUAAGGGUA [A82U U127A] yielded a self-cleavage of 0.04. Variant GUUAACGGUCAUAGGCCAUGGAAACUAGGAGCACCAUUUCGCUGCCAGUGAAGAAAUGAACAAAGAAAAUCUGGGCCAGGCAAGCGUCAAAAGAAAUAGUCUUGCGCUCAACCAGAAAGUCUGUAAUCAUUUUAAGGGUA [G83A A86G] has a self-cleavage of 2.15. In the case of GUUAACGGUCAUAGGCCAUGGAAACUAGGAGCACCAUUUCGCUGCCAGUGAAGAAAUGAACAAAGAAAAUCUGGGCCAGGCAAGCUUCAAAAGAAAUAGUCUUGCGCUCAACCAGAAAGUCUGUAAUCAUUUUAAGGGUA [G83A A86U], the self-cleavage is reported as 2.81. In the case of GUUAACGGUCAUAGGCCAUGGAAACUAGGAGCACCAUUUCGCUGCCAGUGAAGAAAUGAACAAAGAAAAUCUGGGCCAGGCUGGCAUCAAAAGAAAUAGUCUUGCGCUCAACCAGAAAGUCGGUAAUCAUUUUAAGGGUA [A82U U122G], the self-cleavage is reported as 0.28. Variant GUUAACGGUCAUAGGCCAUGGAAACUAGGAGCACCAUUUCGCUGCCAGUGAAGAAAUGAACAAAGAAAAUCUGGGCCAGGCUGGCAUCAAAAGAAAUAGUCUUGCGCUCAACCAGAAAGUCUGUCAUCAUUUUAAGGGUA [A82U A125C] has a self-cleavage of 0.29. With GUUAACGGUCAUAGGCCAUGGAAACUAGGAGCACCAUUUCGCUGCCAGUGAAGAAAUGAACAAAGAAAAUCUGGGCCAGGCUGGCAUCAAAAGAAAUAGUCUUGCGCUCAACCAGAAAGUCUGUGAUCAUUUUAAGGGUA [A82U A125G] the self-cleavage was 0.03. For GUUAACGGUCAUAGGCCAUGGAAACUAGGAGCACCAUUUCGCUGCCAGUGAAGAAAUGAACAAAGAAAAUCUGGGCCAGGCUGGCAUCAAAAGAAAUAGUCUUGCGCUCAACCAGAAAGUCUGUAAUCAUUUUGAGGGUA [A82U A134G], the self-cleavage was 0.16. GUUAACGGUCAUAGGCCAUGGAAACUAGGAGCACCAUUUCGCUGCCAGUGAAGAAAUGAACAAAGAAAAUCUGGGCCAGGCUGGCAUCAAAAGAAAUAGUCUUGCGCUCAACCAGAAAGUCUGUAAUCAUCUUAAGGGUA [A82U U131C] gave a self-cleavage of 0.24. With GUUAACGGUCAUAGGCCAUGGAAACUAGGAGCACCAUUUCGCUGCCAGUGAAGAAAUGAACAAAGAAAAUCUGGGCCAGGCUGGCAUCAAAAGAAAUAGUCUUGCGCUCAACCAGAAAGUCUGUAAUCAUAUUAAGGGUA [A82U U131A] the self-cleavage was 0.07. GUUAACGGUCAUAGGCCAUGGAAACUAGGAGCACCAUUUCGCUGCCAGUGAAGAAAUGAACAAAGAAAAUCUGGGCCAGGCUGGCAUCAAAAGAAAUAGCCUUGCGCUCAACCAGAAAGUCUGUAAUCAUUUUAAGGGUA [A82U U100C] gave a self-cleavage of 0.5. Work on GUUAACGGUCAUAGGCCAUGGAAACUAGGAGCACCAUUUCGCUGCCAGUGAAGAAAUGAACAAAGAAAAUCUGGGCCAGGCUGGCAUCAAAAGAAAUAGUCUUGUGCUCAACCAGAAAGUCUGUAAUCAUUUUAAGGGUA [A82U C105U] yielded a self-cleavage of 0.01. GUUAACGGUCAUAGGCCAUGGAAACUAGGAGCACCAUUUCGCUGCCAGUGAAGAAAUGAACAAAGAAAAUCUGGGCCAGGCUGGCAUCAAAAGAAAUAGUCUUGCGCUCAUCCAGAAAGUCUGUAAUCAUUUUAAGGGUA [A82U A111U] gave a self-cleavage of 0.04. With GUUAACGGUCAUAGGCCAUGGAAACUAGGAGCACCAUUUCGCUGCCAGUGAAGAAAUGAACAAAGAAAAUCUGGGCCAGGCUGGCAUCAAAAGAAAUAGUCUUGCGCUCAACCAGAAAGUCUGUAAUCGUUUUAAGGGUA [A82U A129G] the self-cleavage was 0.08. GUUAACGGUCAUAGGCCAUGGAAACUAGGAGCACCAUUUCGCUGCCAGUGAAGAAAUGAACAAAGAAAAUCUGGGCCAGGCAAGCAUCAAAAGAAAUAGUCCUGCGCUCAACCAGAAAGUCUGUAAUCAUUUUAAGGGUA [G83A U102C] showed a self-cleavage of 0.44. With GUUAACGGUCAUAGGCCAUGGAAACUAGGAGCACCAUUUCGCUGCCAGUGAAGAAAUGAACAAAGAAAAUCUGGGCCAGGCAAGCACCAAAAGAAAUAGUCUUGCGCUCAACCAGAAAGUCUGUAAUCAUUUUAAGGGUA [G83A U87C] the self-cleavage was 1.21.
